Source: patent US20110118447A1
Numbering of substitutions follows the chain as printed. In names and notes the source's numbering stands. Each block holds one binder with its values, some of them ahead of it.

Legend:
[1] = biological target: binding partner of C5A (XPA23); assay: Biacore
[2] = biological target: binding partner (antigen) of C5A (XPA23); assay: Biacore, K-off, fold vs original

B2: C5A (XPA23) VH N104L (antibody, V domains shown)
VH: EVQLLESGGGLVQPGGSLRLSCAASGFTFSKYFMFWVRQAPGKGLEWVSVISPSGGMTRYADSVKGRFTISRDNSKNTLYLQMNSLRAEDTAVYYCARVGYGGLSDYWGQGTLVTVSS
VL: DIQMTQSPSSVSASVGDRLTIICRASQDINRWLAWYQQTPGNAPKLLIHSATSLQSGVPSRFSGSGSGTDFTLTINSLQPEDFATYYCQQADSFPLTFGGGTKVEIK
fold difference in affinity vs original [1]: 1.19 fold
fold difference in affinity vs original [2]: 1.19 fold

B4: C5A (XPA23) VH D106G (antibody, V domains shown)
VH: B2 VH with L104N, D106G
VL: B2 VL
fold difference in affinity vs original [1]: 0.03 fold
fold difference in affinity vs original [2]: 0.03 fold

B5: C5A (XPA23) VH S105P (antibody, V domains shown)
VH: B2 VH with L104N, S105P
VL: B2 VL
fold difference in affinity vs original [1]: 1.41 fold
fold difference in affinity vs original [2]: 1.41 fold

B6: C5A (XPA23) VH N104G (antibody, V domains shown)
VH: B2 VH with L104G
VL: B2 VL
fold difference in affinity vs original [1]: 1.21 fold
fold difference in affinity vs original [2]: 1.21 fold

B9: C5A (XPA23) VH Y107A (antibody, V domains shown)
VH: B2 VH with L104N, Y107A
VL: B2 VL
fold difference in affinity vs original [1]: 0.83 fold
fold difference in affinity vs original [2]: 0.83 fold

B10: C5A (XPA23) VH G103V (antibody, V domains shown)
VH: B2 VH with G103V, L104N
VL: B2 VL
fold difference in affinity vs original [1]: 2.56 fold
fold difference in affinity vs original [2]: 2.56 fold

B13: C5A (XPA23) VH S105A (antibody, V domains shown)
VH: B2 VH with L104N, S105A
VL: B2 VL
fold difference in affinity vs original [1]: 0.84 fold
fold difference in affinity vs original [2]: 0.84 fold

B15: C5A (XPA23) VH S105V (antibody, V domains shown)
VH: B2 VH with L104N, S105V
VL: B2 VL
fold difference in affinity vs original [1]: 0.08 fold
fold difference in affinity vs original [2]: 0.08 fold

Now from value to binder:

fold difference in affinity vs original [1]: 0.03 fold
fold difference in affinity vs original [2]: 0.03 fold
B1: C5A (XPA23) VH G103A (antibody, V domains shown)
VH: B2 VH with G103A, L104N
VL: B2 VL

fold difference in affinity vs original [1]: 0.12 fold
fold difference in affinity vs original [2]: 0.12 fold
B3: C5A (XPA23) VH S105G (antibody, V domains shown)
VH: B2 VH with L104N, S105G
VL: B2 VL

fold difference in affinity vs original [1]: 1.27 fold
fold difference in affinity vs original [2]: 1.27 fold
B7: C5A (XPA23) VH N104V (antibody, V domains shown)
VH: B2 VH with L104V
VL: B2 VL

fold difference in affinity vs original [1]: 1.61 fold
fold difference in affinity vs original [2]: 1.61 fold
B8: C5A (XPA23) VH N104A (antibody, V domains shown)
VH: B2 VH with L104A
VL: B2 VL

fold affinity vs original [1]: 1.25 fold
fold difference in affinity vs original [2]: 1.25 fold
B11: C5A (XPA23) VH S105F (antibody, V domains shown)
VH: B2 VH with L104N, S105F
VL: B2 VL

fold difference in affinity vs original [1]: 0.1 fold
fold difference in affinity vs original [2]: 0.1 fold
B12: C5A (XPA23) VH Y107G (antibody, V domains shown)
VH: B2 VH with L104N, Y107G
VL: B2 VL

fold difference in affinity vs original [1]: 0.07 fold
fold difference in affinity vs original [2]: 0.07 fold
B14: C5A (XPA23) VH S105I (antibody, V domains shown)
VH: B2 VH with L104N, S105I
VL: B2 VL
